Laboratory results taken from paper PMC10381084.

Key:
[1] = molecular target: Dsh-GFP (Drosophila Dishevelled) (UniProt P51140); experiment: co-immunoprecipitation (IP α-Flag, IB α-GFP), western blot quantification; details: S2 cells, read off a plot
[2] = molecular target: Myc-Pk (Drosophila Prickle) (UniProt A1Z6W3); experiment: co-immunoprecipitation (IP α-Flag, IB α-Myc), western blot quantification; details: S2 cells; 6 independent replicates; parent: est. 18; read off a plot
[3] = 6–7 replicates, parent: est. 12

Chain of UniProt P51140 (P51140 whole entry, looked up): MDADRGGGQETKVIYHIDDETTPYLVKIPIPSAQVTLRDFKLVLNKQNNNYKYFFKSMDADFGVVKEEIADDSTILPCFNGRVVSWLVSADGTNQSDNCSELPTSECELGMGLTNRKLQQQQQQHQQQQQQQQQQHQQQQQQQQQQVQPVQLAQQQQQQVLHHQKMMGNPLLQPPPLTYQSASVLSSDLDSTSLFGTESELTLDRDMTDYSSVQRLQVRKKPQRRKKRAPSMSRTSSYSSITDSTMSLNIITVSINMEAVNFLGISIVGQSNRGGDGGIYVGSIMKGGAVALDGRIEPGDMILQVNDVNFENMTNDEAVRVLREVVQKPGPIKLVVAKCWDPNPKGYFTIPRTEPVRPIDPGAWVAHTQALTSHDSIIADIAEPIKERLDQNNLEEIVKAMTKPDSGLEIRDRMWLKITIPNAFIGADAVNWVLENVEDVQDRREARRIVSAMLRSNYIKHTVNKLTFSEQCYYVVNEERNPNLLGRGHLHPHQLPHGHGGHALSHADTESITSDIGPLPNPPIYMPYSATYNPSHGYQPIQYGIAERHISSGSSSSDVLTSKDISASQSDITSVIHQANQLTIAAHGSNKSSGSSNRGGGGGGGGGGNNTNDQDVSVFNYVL
Chain of UniProt A1Z6W3 (A1Z6W3 whole entry, looked up): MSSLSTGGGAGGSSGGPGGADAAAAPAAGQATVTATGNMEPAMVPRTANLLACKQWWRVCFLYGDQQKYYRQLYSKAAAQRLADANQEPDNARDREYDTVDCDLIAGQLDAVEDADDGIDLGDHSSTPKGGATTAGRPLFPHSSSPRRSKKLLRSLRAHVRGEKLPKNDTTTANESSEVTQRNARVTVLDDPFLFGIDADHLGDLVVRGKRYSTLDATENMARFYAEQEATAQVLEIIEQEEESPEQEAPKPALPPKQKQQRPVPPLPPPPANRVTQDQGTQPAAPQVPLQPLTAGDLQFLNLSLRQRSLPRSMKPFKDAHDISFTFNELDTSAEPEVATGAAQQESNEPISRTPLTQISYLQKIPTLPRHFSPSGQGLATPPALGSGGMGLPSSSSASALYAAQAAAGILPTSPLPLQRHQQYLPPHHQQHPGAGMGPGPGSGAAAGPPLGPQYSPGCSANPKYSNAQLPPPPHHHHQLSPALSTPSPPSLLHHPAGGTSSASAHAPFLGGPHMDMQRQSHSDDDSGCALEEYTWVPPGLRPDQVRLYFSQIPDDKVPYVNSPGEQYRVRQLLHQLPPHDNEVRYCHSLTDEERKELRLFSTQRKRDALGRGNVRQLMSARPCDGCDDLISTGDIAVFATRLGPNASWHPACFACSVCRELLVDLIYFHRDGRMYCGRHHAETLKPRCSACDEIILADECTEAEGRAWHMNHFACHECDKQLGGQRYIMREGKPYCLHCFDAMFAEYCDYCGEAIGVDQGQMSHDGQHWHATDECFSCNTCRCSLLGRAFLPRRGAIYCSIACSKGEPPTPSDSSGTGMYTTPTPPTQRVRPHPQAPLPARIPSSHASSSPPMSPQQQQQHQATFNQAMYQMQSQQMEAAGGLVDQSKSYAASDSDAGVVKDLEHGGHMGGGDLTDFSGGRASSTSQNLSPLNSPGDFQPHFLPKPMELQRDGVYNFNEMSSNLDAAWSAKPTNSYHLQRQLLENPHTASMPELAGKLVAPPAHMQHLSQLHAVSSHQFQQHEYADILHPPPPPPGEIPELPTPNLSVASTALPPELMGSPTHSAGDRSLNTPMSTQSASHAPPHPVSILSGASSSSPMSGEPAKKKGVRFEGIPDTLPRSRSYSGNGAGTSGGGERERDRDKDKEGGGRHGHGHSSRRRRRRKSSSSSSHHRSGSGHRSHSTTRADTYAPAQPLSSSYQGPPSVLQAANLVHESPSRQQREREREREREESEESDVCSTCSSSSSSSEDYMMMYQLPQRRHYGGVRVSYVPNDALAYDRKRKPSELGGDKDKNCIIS

Substance	response ([1]; 6 replicates, parent: est. 9.6) [a.u.]	response [1, 3] [a.u.]	response [2] [a.u.]
Vang-Flagx3 (Drosophila Van Gogh, wild type) V376A	2.5		
Vang-Flagx3 (Drosophila Van Gogh, wild type) F371A; K372A; Y374A		1.6	1
Vang-Flagx3 (Drosophila Van Gogh, wild type) Y374A		2.5	2.5
